Data taken from the supplement of paper PMC7125110.
± gives the standard error. For part of these data: This sample holds only a part of the variants without activity.

B1: glmS ribozyme (parent)
chain: AUAAAAGCGCCAGAACUACAGAAAUGUAGUUGACGAGGAGGAGGUUUAUCGAAUUUUCGGCGGAUGCCUCCAAA

Tests used:
Conditions in all cases: with glucosamine-6-phosphate
glucosamine-6-phosphate [1] = variants of: B1; experiment: kcat; higher = faster cleavage; RNA array
Summary of the method: (§1)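 Glucosamine-6-phosphate (40 μM to 10 mM) in HEPES/KCl/Mg(OAc)2 buffer was flowed over sequenced MiSeq chips, and tiles were imaged over ~14 h. Barcoded ribozyme variants there had been transcribed in situ by E. coli RNA polymerase and were tracked through a hybridised Cy3 probe at 37 °C. One- or two-exponential decay fits to per-tile medians, normalised to baseline and to non-cleaving reference variants, gave kobs. kcat and KM came from weighted Michaelis–Menten fits across concentrations.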

glucosamine-6-phosphate [2] = variants of: B1; experiment: self-cleavage kobs at 40 uM GlcN6P; higher = faster cleavage; RNA array
Summary of the method: as §1

glucosamine-6-phosphate [3] = variants of: B1; experiment: self-cleavage kobs at 160 uM GlcN6P; higher = faster cleavage; RNA array
Summary of the method: as §1

glucosamine-6-phosphate [4] = variants of: B1; experiment: self-cleavage kobs at 640 uM GlcN6P; higher = faster cleavage; RNA array
Summary of the method: as §1

glucosamine-6-phosphate [5] = variants of: B1; experiment: self-cleavage kobs at 2500 uM GlcN6P; higher = faster cleavage; RNA array
Summary of the method: as §1

glucosamine-6-phosphate [6] = variants of: B1; experiment: self-cleavage kobs at 10000 uM GlcN6P; higher = faster cleavage; RNA array
Summary of the method: as §1

glucosamine-6-phosphate [7] = variants of: B1; experiment: KM; higher = weaker cofactor use; RNA array
Summary of the method: as §1

Variant | kcat (glucosamine-6-phosphate [1]) [s⁻¹] | self-cleavage kobs at 40 uM GlcN6P (glucosamine-6-phosphate [2]) [s⁻¹] | self-cleavage kobs at 160 uM GlcN6P (glucosamine-6-phosphate [3]) [s⁻¹] | self-cleavage kobs at 640 uM GlcN6P (glucosamine-6-phosphate [4]) [s⁻¹] | self-cleavage kobs at 2500 uM GlcN6P (glucosamine-6-phosphate [5]) [s⁻¹] | self-cleavage kobs at 10000 uM GlcN6P (glucosamine-6-phosphate [6]) [s⁻¹] | KM (glucosamine-6-phosphate [7]) [µM]
G29A U30A | 0.00133 ± 0.00052 | 2.98e-05 ± 1.5e-05 | 5.7e-05 ± 2e-05 | 0.000149 ± 2.4e-05 | 0.000752 ± 0.00014 | 0.000862 ± 0.00016 | –
A12U G38A | < 1e-05 | – | – | – | – | – | –
C10U G60A | 1.02e-05 ± 1.8e-06 | < 1e-05 | – | – | – | – | –
U55A C68G | 8.49e-05 ± 3.5e-06 | 3.36e-05 ± 1e-05 | 6.64e-05 ± 1e-05 | 8.75e-05 ± 1.2e-05 | 8.44e-05 ± 1.1e-05 | 8.04e-05 ± 7.4e-06 | 51.2 ± 14
A33C U55C | < 1e-05 | < 1e-05 | < 1e-05 | < 1e-05 | – | – | –
A42U G43U C61A | 2.03e-05 ± 2.4e-06 | – | – | – | – | – | –
G13U A36C G38U A39C | 1.03e-05 ± 4.7e-06 | – | – | – | – | – | –
U45A A52G | 0.00326 ± 0.00073 | 5.17e-05 ± 1e-05 | 0.000155 ± 2.1e-05 | 0.000699 ± 8.5e-05 | 0.00135 ± 0.00014 | 0.00293 ± 0.00044 | 2900 ± 900
G40A U65G | 0.00247 ± 0.00015 | 3.72e-05 ± 1.4e-05 | – | 0.000421 ± 0.0001 | 0.00107 ± 0.00028 | 0.00192 ± 0.00028 | 2990 ± 340
G37U C50U C70U | 3.99e-05 ± 1.4e-05 | – | – | – | – | – | –
C50G U65G | 5.8e-05 ± 2.4e-05 | – | 4.97e-05 ± 1.7e-05 | – | 7.28e-05 ± 2.4e-05 | – | –
A12U G40A | 0.0133 ± 0.0024 | 0.000618 ± 0.00017 | 0.00156 ± 0.00048 | 0.0042 ± 0.001 | 0.00929 ± 0.0029 | 0.013 ± 0.0034 | 1110 ± 310
U30G C67A C70U | 0.000403 ± 2.7e-05 | – | – | 0.00027 ± 6.3e-05 | 0.000399 ± 0.00014 | 0.000369 ± 8.4e-05 | 353 ± 78
C34U G63C | < 1e-05 | – | – | < 1e-05 | < 1e-05 | – | –
G66C C70G | 0.000116 ± 4e-06 | – | 3.35e-05 ± 1.2e-05 | 6.38e-05 ± 8.2e-06 | 9.88e-05 ± 1.2e-05 | 0.000111 ± 1.5e-05 | 490 ± 56
G32U U65G | 0.00128 ± 0.00061 | < 1e-05 | – | – | 2.49e-05 ± 1.1e-05 | 9.34e-05 ± 1.3e-05 | –
C67G C70U | 0.000163 ± 2.9e-06 | – | – | 4.24e-05 ± 6e-06 | 9.79e-05 ± 8.3e-06 | 0.000137 ± 8.4e-06 | 1750 ± 88

Variant | kcat (glucosamine-6-phosphate [1]) [s⁻¹] | self-cleavage kobs at 40 uM GlcN6P (glucosamine-6-phosphate [2]) [s⁻¹] | self-cleavage kobs at 160 uM GlcN6P (glucosamine-6-phosphate [3]) [s⁻¹] | self-cleavage kobs at 640 uM GlcN6P (glucosamine-6-phosphate [4]) [s⁻¹] | self-cleavage kobs at 2500 uM GlcN6P (glucosamine-6-phosphate [5]) [s⁻¹] | self-cleavage kobs at 10000 uM GlcN6P (glucosamine-6-phosphate [6]) [s⁻¹] | KM (glucosamine-6-phosphate [7]) [µM]
G32U C58A | 0.00151 ± 0.00022 | – | 6.77e-05 ± 1.3e-05 | 0.000164 ± 1.4e-05 | 0.000495 ± 4.5e-05 | 0.00102 ± 8.8e-05 | 5030 ± 1000
C11U C67A | 0.000277 ± 2.6e-05 | – | 4.36e-05 ± 1.8e-05 | 0.000121 ± 1.3e-05 | 0.000256 ± 4e-05 | 0.000242 ± 3e-05 | 801 ± 180
A52C C67G | 1.74e-05 ± 6.9e-06 | – | – | – | – | – | –
U46A A53U | 0.00158 ± 0.00035 | 5.78e-05 ± 1.1e-05 | 0.000161 ± 3.2e-05 | 0.000394 ± 5.6e-05 | 0.000952 ± 0.00012 | 0.00158 ± 0.00025 | 1520 ± 540
U45A U69A | 0.000153 ± 3.8e-05 | 5.69e-05 ± 1.3e-05 | – | 9.56e-05 ± 2.4e-05 | 0.000129 ± 3.7e-05 | 0.000167 ± 2.1e-05 | –
A48G C67A | 7.17e-05 ± 2.1e-06 | – | < 1e-05 | – | – | 3.47e-05 ± 1.2e-05 | –
G32U G37A | 4.33e-05 ± 1.3e-05 | – | – | – | – | 3.21e-05 ± 6.6e-06 | –
A39U G40U | 0.00237 ± 0.00036 | 9.94e-05 ± 1.5e-05 | 0.000285 ± 4.1e-05 | 0.00112 ± 0.00016 | 0.00163 ± 0.00025 | 0.00209 ± 0.00044 | 997 ± 220
A39U G40C | 0.00382 ± 0.00081 | 0.00011 ± 1.5e-05 | 0.000253 ± 4.7e-05 | 0.00089 ± 0.0001 | 0.00244 ± 0.00039 | 0.00324 ± 0.00043 | 1850 ± 560
G35C C68U | < 1e-05 | < 1e-05 | < 1e-05 | – | – | – | –
A14U U65C | 8.95e-05 ± 1.3e-05 | – | – | 3.59e-05 ± 8.9e-06 | 9.87e-05 ± 1.3e-05 | 7.83e-05 ± 7.7e-06 | –
G13A A53G | 0.00138 ± 0.00018 | – | 6.12e-05 ± 1.3e-05 | 0.00017 ± 2e-05 | 0.000498 ± 5.7e-05 | 0.000981 ± 0.00011 | 4280 ± 820
A14G C16G | 0.0069 ± 0.0022 | 0.000569 ± 8.6e-05 | 0.00113 ± 0.00027 | 0.00514 ± 0.0008 | 0.00397 ± 0.0011 | 0.00854 ± 0.0016 | –
A15U U55G | 0.00423 ± 0.0019 | 0.000109 ± 1.3e-05 | 0.000152 ± 4.6e-05 | 0.00134 ± 0.00029 | 0.00204 ± 0.00063 | 0.00356 ± 0.00054 | –
G32C U56G | 5.69e-05 ± 1.6e-06 | < 1e-05 | – | 2.63e-05 ± 1.3e-05 | 4.76e-05 ± 1.1e-05 | 5.27e-05 ± 7.2e-06 | 663 ± 110
A6C C68G | < 1e-05 | < 1e-05 | – | < 1e-05 | – | – | –
